Measured values taken from patent US20140120095A1 (Boehringer Ingelheim, published 2014).

Legend:
[1] = target: T1, human DLL4 expressed on cells (CHO-hDLL4; HEK293-hDLL4) (human, UniProt Q9NR61 27-685); experiment: competition FMAT, labelled hNotch1-Fc on CHO-hDLL4 cells
T1 construct: full length human DLL4 overexpressed on CHO cells (FMAT, FACS) or HEK293 cells (reporter assay)

[2] = target: T2, recombinant human DLL4 (C-terminally His-tagged extracellular domain, R&D Systems) (human, UniProt Q9NR61 25-522, biotinylated in the competition ELISA); experiment: cell-based or functional assay
[3] = target: T3, mouse DLL4 expressed on CHO cells (mouse, UniProt Q9JI71 27-686); experiment: competition FMAT, labelled hNotch1-Fc on CHO-mDLL4 cells
T3 construct: whole, on cells; also called mDLL4; CHO-mDLL4

[4] = target: T1, human DLL4 expressed on cells …; experiment: cell-based or functional assay
[5] = target: T2, recombinant human DLL4 (C-terminally …); experiment: SPR (Biacore), recombinant human DLL4
Description: Kinetic analysis to determine the affinity of the DII4-VHH interaction is performed by Surface Plasmon Resonance (SPR) on a Biacore T100 instrument. […] Purified VHHs or Fab fragment are injected for 2 minutes at different concentrations (between 10 and 300 nM) and allowed to dissociate for 20 min at a flow rate of 45 μl/min. Between sample injections, the surfaces are regenerated with 10 mM glycine pH1.5 and 100 mM HCl. HBS-N (Hepes buffer pH7.4) is used as running buffer. If possible, data are evaluated by fitting a 1:1 interaction model (Langmuir binding) onto the binding curves. The affinity constant KD is calculated from resulting association and dissociation rate constants (kₐ) and […].

[6] = target: T4, recombinant human VEGF165 (human, UniProt P15692-4 27-191, biotinylated in the competition assays); experiment: SPR Biacore, immobilised hVEGF165, two state reaction model
T4 construct: Bought protein; also called hVEGF165; rhVEGF165
Description: Samples are injected for 2 min and allowed to dissociate up to 20 min at a flow rate of 45 μl/min. In between sample injections, the chip surface is regenerated with 100 mM HCl. HBS-EP+(Hepes buffer pH7.4+EDTA) is used as running buffer. Binding curves are fitted using a Two State Reaction model by Biacore T100 Evaluation Software v2.0.1.
^{(a)}KD = kd1/kₐ₁ * (kd2/(kd2 + kₐ₂)) ^{(b)}Curves are fitted using a Two State Reaction model by Biacore T100 Evaluation Software v2.0.1

[7] = target: T4, recombinant human VEGF165; experiment: binding ELISA, coated rhVEGF165
[8] = target: VEGF (used to stimulate HUVEC cells) (UniProt P15692-4 27-191, limits assumed); experiment: cell-based or functional assay
[9] = target: T4, recombinant human VEGF165; experiment: ELISA, hVEGF165/hVEGFR2-Fc competition; parameters: % inhibition: concentration or dose not given beside the values
[10] = target: T4, recombinant human VEGF165; experiment: AlphaScreen, hVEGF165/hVEGFR2-Fc competition; parameters: % inhibition: concentration or dose not given beside the values
Description: (§1) Finally, streptavidin donor beads (20 μg/ml) are added and after 1 hour of incubation in the dark, fluorescence is measured on the Envision microplate reader.

[11] = target: T4, recombinant human VEGF165; experiment: AlphaScreen, hVEGF165/hVEGFR1-Fc competition; parameters: % inhibition: concentration or dose not given beside the values
Description: as §1

[12] = target: T4, recombinant human VEGF165; experiment: AlphaScreen, hVEGF165/hVEGFR2-Fc competition
Description: as §1

recombinant human DLL4 [13] = target: T5, recombinant human DLL4 (human, UniProt Q9NR61 25-522); experiment: hDLL4 ELISA screen, periplasmic extract
T5 construct: also called rhDLL4; hDLL4

recombinant human DLL4 [14] = target: T5, recombinant human DLL4; experiment: Biacore off-rate, periplasmic extract
recombinant human DLL4 [15] = target: T5, recombinant human DLL4; experiment: AlphaScreen biot-hDLL4/hNotch1-Fc, periplasmic extract

T4 sequence (P15692 other isoform, or with tags, fused parts or gaps): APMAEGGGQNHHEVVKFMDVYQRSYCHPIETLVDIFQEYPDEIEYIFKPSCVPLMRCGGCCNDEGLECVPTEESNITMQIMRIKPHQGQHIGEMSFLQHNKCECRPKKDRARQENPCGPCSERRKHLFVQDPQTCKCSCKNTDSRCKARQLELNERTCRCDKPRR
T3 sequence (Q9JI71 27-686): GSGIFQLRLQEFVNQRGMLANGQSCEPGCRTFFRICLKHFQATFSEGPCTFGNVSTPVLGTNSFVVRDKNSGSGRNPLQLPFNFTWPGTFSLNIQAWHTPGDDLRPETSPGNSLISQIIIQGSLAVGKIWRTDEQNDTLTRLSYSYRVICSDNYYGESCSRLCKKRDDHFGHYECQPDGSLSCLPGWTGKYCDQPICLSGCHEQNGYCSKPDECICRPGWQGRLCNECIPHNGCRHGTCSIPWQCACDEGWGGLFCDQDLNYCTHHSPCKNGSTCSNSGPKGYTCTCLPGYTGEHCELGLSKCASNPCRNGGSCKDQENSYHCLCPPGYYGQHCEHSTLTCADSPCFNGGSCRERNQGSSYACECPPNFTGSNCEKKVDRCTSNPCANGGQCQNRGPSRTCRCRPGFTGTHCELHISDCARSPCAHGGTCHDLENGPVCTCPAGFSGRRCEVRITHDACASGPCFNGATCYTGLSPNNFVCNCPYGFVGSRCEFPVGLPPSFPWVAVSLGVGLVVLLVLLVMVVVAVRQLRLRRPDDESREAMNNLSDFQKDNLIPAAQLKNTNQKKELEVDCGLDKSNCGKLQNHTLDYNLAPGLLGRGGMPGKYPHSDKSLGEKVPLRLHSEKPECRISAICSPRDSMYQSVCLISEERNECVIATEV
VEGF (used to stimulate HUVEC cells), sequence (P15692 other isoform, or with tags, fused parts or gaps limits assumed): as the sequence (P15692 other isoform, or with tags, fused parts or gaps) above

Binder | IC50 [1] | IC50, DLL4-mediated HUVEC proliferation assay [2] | Inhibition (%), DLL4-mediated HUVEC proliferation assay [2] | IC50 [3] | IC50, DLL4-mediated reporter assay (hDLL4) [4] | Kd [5] | koff [5] | kon [5] | % inh (recombinant human DLL4 [13]) | koff (recombinant human DLL4 [14]) | % inh (recombinant human DLL4 [15]) | also measured
DLLBII018 (VHH, not shown: small tags and cut ends) VHH: EVQLVESGGGLVQPGGSLRLSCAASGRTFSSYAMAWYRQAPGKEREYVAAIRWSGGTAYYADSVKGRFTISRDNAKNTVYLQMNSLRPEDTAVYYCANRAPDTRLAPYEYDHWGQGTLVTVSS | 11 nM | 5.3 nM | 100% | 15.4 nM | 136 nM | 0.2 nM | 9.4e-05 s⁻¹ | 450000 M⁻¹ s⁻¹ |  |  |  | 
DLLBII036 (VHH, not shown: small tags and cut ends) VHH: EVQLVESGGGLVQPGGSLRLSCAASGFTFGSYDMSWVRRAPGKGPEWVSSISSGGGSTYYADYVKGRFTISRDNAKNTLYLQMNSLRPEDTAVYYCAADRYIWARQGEYWGAYEYDYWGQGTLVTVSS | 9.7 nM | 7.6 nM | 100% | 44.7 nM | 78 nM | 0.8 nM | 0.00055 s⁻¹ | 660000 M⁻¹ s⁻¹ |  |  |  | 
DLLBII039 (VHH, not shown: small tags and cut ends) VHH: EVQLVESGGGLVQPGGSLRLSCAASGFTIGSYDMSWVRRAPGKGPEWVSSISSGGGSTYYADYVKGRFTISRDNAKNTLYLQMNSLRPEDTAVYYCAADRYIWARQGEYWGAYEYDYWGQGTLVTVSS | 6.2 nM | 14.4 nM | 100% | 43.8 nM | 16 nM | 1.8 nM | 0.00081 s⁻¹ | 450000 M⁻¹ s⁻¹ |  |  |  | 
VEGFBII023 (VHH, not shown: small tags and cut ends, Bivalent anti-VEGF VHH; also called VEGFBII23B04-40GS-10E07) EVQLVESGGGLVQTGDSLRLSCEVSGRTFSSYSMGWFRQAQGKEREFVVAISKGGYKYDSVSLEGRFTISKDNAKNTVYLQINSLKPEDTAVYYCASSRAYGSSRLRLADTYEYWGQGTQVTVSSGGGGSGGGGSGGGGSGGGGSGGGGSGGGGSGGGGSGGGGSEVQLVESGGGLVQAGGSLRLSCAASGRTFSNYAMGWFRQAPGKERVLVADISSSGINTYVADAVKGRFTISRDNAKNTVYLQMNSLKPEDTAVYYCAASAWWYSQMARDNYRYWGQGTQVTVSS |  |  |  |  |  |  |  |  |  |  |  | Kd [6]: 0.69 nM; ka1 [6]: 300000 M⁻¹ s⁻¹; ka2 [6]: 0.024 s⁻¹; kd1 [6]: 0.018 s⁻¹; kd2 [6]: 0.00027 s⁻¹; EC50 [7]: 0.221 nM; % inhibition, VEGF HUVEC Erk phosphorylation assay [8]: 100%; IC50, VEGF HUVEC Erk phosphorylation assay [8]: 0.25 nM; % inhibition [9]: 100%; IC50 [9]: 0.213 nM; % inhibition [10]: 100%; IC50 [10]: 0.046 nM; % inhibition [11]: 87%; IC50 [11]: 0.048 nM; IC50 [12]: 0.038 nM
DLLBII19F12 (VHH) VHH: EVQLVESGGGLVQAGGSLRLSCTASGSTFTSYAMGWYRQAPGKQRELVAAISSDDSTYYADCVKGRFTISRDNAKNTVYLQMNSLKPEDTAVYYCNAPHSDYDEEAPSDFGSWGQGTQVTVSS |  |  |  |  |  |  |  |  | 98% | 0.00049 s⁻¹ | 98% | 
DLLBII33C05 (VHH) VHH: EVQLVESGGGLVQAGGSLRLSCAASGFTLDNYVIGWFRQAPGKEREEVSCISSSGGSTDYLDSVKGRFTISRDNAKNTVYLQMNSLKPEDTAVYYCAADSLPCYYDKMVYDYWGQGTQVTVSS |  |  |  |  |  |  |  |  | 86% | 0.00092 s⁻¹ | 75% | 
DLLBII28B06 (VHH) VHH: EVQLVESGGGLVQAGGSLRLSCAASGSTFSTYAMGWYRQDPGNQRELVAAISSDGSTHYADSVKGRFTISRDNAKNTVYLQMNSLKPEDTAVYYCYAPVKVAGLEYDYWGQGTQVTVSS |  |  |  |  |  |  |  |  | 23% | 0.0075 s⁻¹ | 54% | 
